Test results published in FireProtDB (doi:10.1016/j.bpc.2007.12.006).
“And” between values parts separate entries of the source, which are not always exact repeats. Equal entries are not always repeated.

Details: CD, reversible: Yes, whole UniProt chain shown; for unfolding free energy: 25 °C; for heat capacity change of unfolding: Thermal

Row | Protein | unfolding free energy (Aspergillus oryzae (strain ATCC 42149 / RIB 40), pH 2.2, GdnHCl, Glycine-HCl 0.1 M, KCl 0.1 M) | unfolding free energy (Aspergillus oryzae (strain ATCC 42149 / RIB 40), pH 2.2, Urea, Glycine-HCl 0.1 M, KCl 0.1 M) | heat capacity change of unfolding (Aspergillus oryzae (strain ATCC 42149 / RIB 40), pH 2.2, Glycine-HCl 0.1 M, KCl 0.1 M) | unfolding free energy (Bos taurus, pH 7, GdnHCl, Cacodylic acid 0.05 M, NaCl 0.1 M) | unfolding free energy (Bos taurus, pH 7, Urea, Cacodylic acid 0.05 M, NaCl 0.1 M) | heat capacity change of unfolding (Bos taurus, pH 7, Cacodylic acid 0.05 M, NaCl 0.1 M)
1 | Guanyl-specific ribonuclease T1 wild type, P00651 (protein) MMYSKLLTLTTLLLPTALALPSLVERACDYTCGSNCYSSSDVSTAQAAGYQLHEDGETVGSNSYPHKYNNYEGFDFSVSSPYYEWPILSSGDVYSGGSPGADRVVFNENNQLAGVITHTGASGNNFVECT | 2.72 kcal/mol | 2.77 kcal/mol | 2.5 kcal/mol/K and 2.65 kcal/mol/K |  |  | 
2 | Alpha-lactalbumin wild type, P00711 (protein) MMSFVSLLLVGILFHATQAEQLTKCEVFRELKDLKGYGGVSLPEWVCTTFHTSGYDTQAIVQNNDSTEYGLFQINNKIWCKDDQNPHSSNICNISCDKFLDDDLTDDIMCVKKILDKVGINYWLAHKALCSEKLDQWLCEKL |  |  |  | 2.41 kcal/mol | 2.35 kcal/mol | 2.15 kcal/mol/K and 2 kcal/mol/K
